Assay results published in patent US20200277401A1 (PANGEN BIOTECH, published 2020).

Target: T1, recombinant coagulation factor VIII protein (Homo sapiens (Human), UniProt P00451 20-2351)
T1 construct: Recombinant protein isolated from a cell culture solution; also called recombinant coagulation factor FVIII; FVIII
T1 sequence: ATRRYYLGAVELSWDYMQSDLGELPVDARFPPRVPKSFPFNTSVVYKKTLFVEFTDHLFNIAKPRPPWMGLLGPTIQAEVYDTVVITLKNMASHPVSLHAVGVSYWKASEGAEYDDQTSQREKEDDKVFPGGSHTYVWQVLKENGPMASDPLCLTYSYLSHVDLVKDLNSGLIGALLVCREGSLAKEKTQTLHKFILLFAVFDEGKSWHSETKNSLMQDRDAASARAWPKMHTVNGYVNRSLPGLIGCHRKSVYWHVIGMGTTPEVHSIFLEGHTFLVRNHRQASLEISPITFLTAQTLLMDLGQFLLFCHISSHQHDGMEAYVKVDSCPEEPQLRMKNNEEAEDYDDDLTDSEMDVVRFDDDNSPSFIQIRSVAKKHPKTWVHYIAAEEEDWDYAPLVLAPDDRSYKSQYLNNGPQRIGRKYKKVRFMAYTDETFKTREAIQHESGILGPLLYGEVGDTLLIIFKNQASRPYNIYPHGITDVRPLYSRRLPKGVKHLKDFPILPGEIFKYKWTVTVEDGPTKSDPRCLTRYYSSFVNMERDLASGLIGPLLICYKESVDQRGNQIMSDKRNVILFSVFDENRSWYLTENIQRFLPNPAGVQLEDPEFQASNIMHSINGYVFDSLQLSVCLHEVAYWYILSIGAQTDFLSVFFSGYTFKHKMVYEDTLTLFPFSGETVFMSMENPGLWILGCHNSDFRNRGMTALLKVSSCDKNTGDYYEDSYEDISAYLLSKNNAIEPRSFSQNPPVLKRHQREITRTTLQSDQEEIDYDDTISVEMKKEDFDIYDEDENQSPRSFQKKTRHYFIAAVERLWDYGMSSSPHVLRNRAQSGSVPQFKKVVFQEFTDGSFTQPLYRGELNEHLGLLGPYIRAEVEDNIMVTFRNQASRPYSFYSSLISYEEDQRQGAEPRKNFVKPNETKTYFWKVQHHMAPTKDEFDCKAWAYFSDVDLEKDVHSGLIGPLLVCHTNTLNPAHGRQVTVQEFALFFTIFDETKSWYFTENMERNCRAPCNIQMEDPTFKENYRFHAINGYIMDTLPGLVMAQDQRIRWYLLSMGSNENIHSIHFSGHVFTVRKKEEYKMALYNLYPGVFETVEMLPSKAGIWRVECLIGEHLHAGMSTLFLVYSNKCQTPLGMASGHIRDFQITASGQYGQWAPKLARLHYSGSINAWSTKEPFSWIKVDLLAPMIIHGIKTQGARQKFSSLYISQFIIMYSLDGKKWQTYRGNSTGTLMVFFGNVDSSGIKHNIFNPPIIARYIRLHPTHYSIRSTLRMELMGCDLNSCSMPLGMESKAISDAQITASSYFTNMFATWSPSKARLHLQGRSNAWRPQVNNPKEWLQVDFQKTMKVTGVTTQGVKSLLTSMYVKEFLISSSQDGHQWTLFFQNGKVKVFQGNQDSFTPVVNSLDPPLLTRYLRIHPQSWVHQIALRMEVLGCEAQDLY
Test: SPR, Biacore T200, FVIII immobilised on CM5 chip, antibody as analyte, 1:1 model
Description: The kinetic affinity (Ka, Kd, KD) between the purified antibody protein and the recombinant coagulation factor FVIII protein through antigen-antibody reaction was measured by a SPR (surface plasmon resonance) method.
The CM5 chip was mounted on a Biacore T200 instrument, and the recombinant coagulation factor FVIII protein as a ligand was diluted in a 10 mM sodium acetate buffer (pH 5.0) and injected into a sample channel for 10 minutes for immobilization. The purified antibody protein, as the analyte, was prepared at a concentration of 2 μM by diluting with a buffer and was then serially diluted to ten concentrations (0.0039, 0.0078, 0.015, 0.031, 0.062, 0.125, 0.25, 0.5, 1, 2 μM). Association and dissociation times were set to 3 minutes and 4 minutes, respectively, and association and dissociation were measured.
BIAevaluation analysis software was used to analyze the kinetic affinity of the purified antibody protein and the recombinant coagulation factor FVIII protein. The association force, dissociation force and dissociation constant were calculated as follows by applying ten concentrations of association/dissociation data to a 1:1 kinetic binding model (A+B↔AB).

B1: anti-FVIII antibody (purified antibody protein produced by the ADBA1013-14 CHO cell line from the heavy and light chain genes of hybridoma clone 3F6-2-5) (antibody, mouse IgG1, V domains shown)
VH: EVKIEESGGGLVQPGGSMKLSCAASGFTFSDAWMDWVRQSPEKGLEWVAEIRSKAKNHATNYAESVKGRFTISRDDSKSRVYLQMNTLRAEDTGIYYCTNYHFWGPGTTLTVS
VL: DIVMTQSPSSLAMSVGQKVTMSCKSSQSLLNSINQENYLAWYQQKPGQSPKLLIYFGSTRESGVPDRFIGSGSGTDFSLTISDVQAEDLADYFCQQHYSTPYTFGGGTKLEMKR
modifications: N-glycan on Asparagine No. 288 of the heavy chain
notes: The full chains are in the listing under one of these numberings; The hybridoma antibody 3F6-2-5 and the recombinant CHO product are treated as one molecule (same genes); also called purified anti-FVIII antibody protein; anti-coagulation factor VIII antibody
  Kd: 55.3 nM
  koff: 0.00068 s⁻¹
  kon: 12300 M⁻¹ s⁻¹
